What was measured:
Experiment in all cases: FRET or BRET; acceptor photobleaching FRET between ECFP and EYFP fusions in tobacco leaf epidermis; YFP bleached with a 514 nm laser; E = 100(A − B)/B
[1] = biological target: EYFP-ROP11G17V (Arabidopsis) (UniProt O82481)
[2] = biological target: EYFP-ROP11T22N (Arabidopsis) (UniProt O82481)
[3] = biological target: EYFP-ROP11 (Arabidopsis) (UniProt O82481)
[4] = biological target: BDR1-ECFP (Arabidopsis thaliana)
Chain of BDR1-ECFP (Arabidopsis thaliana) (main, as listed by the source): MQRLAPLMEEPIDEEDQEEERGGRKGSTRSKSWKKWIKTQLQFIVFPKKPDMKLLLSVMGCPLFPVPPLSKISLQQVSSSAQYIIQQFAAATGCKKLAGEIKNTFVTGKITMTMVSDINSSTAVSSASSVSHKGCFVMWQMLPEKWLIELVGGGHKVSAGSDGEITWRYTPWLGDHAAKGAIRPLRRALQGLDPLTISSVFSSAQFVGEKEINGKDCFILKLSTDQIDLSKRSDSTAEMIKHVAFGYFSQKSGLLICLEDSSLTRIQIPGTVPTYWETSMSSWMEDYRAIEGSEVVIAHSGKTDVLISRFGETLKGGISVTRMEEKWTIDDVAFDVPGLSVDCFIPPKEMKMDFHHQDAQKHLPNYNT

| Substance | FRET efficiency [1] [%] | FRET efficiency [2] [%] | FRET efficiency [3] [%] | FRET efficiency [4] [%] |
| --- | --- | --- | --- | --- |
| BDR1-ECFP (natural protein) | > 10 | 0 | > 10 | – |
| EYFP-WAL (natural protein) | – | – | – | 15 |

From article PMC6349933
